Article PMC4865371, “ESCRT-III activation by parallel action of ESCRT-I/II and ESCRT-0/Bro1 during MVB biogenesis” (eLife, 2016)

Molecular target: the molecule itself
Test: negative stain transmission electron microscopy; purified recombinant Snf7 protein alone; protofilament assembly looked for

B1: Snf7^Q90L (natural protein, Saccharomyces cerevisiae, UniProt P39929 1-240, looked up)
chain: MWSSLFGWTSSNAKNKESPTKAIVRLREHINLLSKKQSHLRTQITNQENEARIFLTKGNKVMAKNALKKKKTIEQLLSKVEGTMESMEQLLFSIESANLNLETMRAMQEGAKAMKTIHSGLDIDKVDETMDEIREQVELGDEISDAISRPLITGANEVDEDELDEELDMLAQENANQETSKIVNNNVNAAPISENKVSLPSVPSNKIKQSENSVKDGEEEEDEEDEDEKALRELQAEMGL
notes: Snf7/Vps32, Saccharomyces cerevisiae, with the point mutation Q90L found in the vps20Δ suppressor screen; source: recombinant, purified as described (Buchkovich et al., 2013; Henne et al., 2012; Tang et al., 2015)
  binding result: binds

B2: Snf7^1-225 (α6 truncated Snf7) (domain or fragment, Saccharomyces cerevisiae, UniProt P39929 1-225, looked up)
chain: MWSSLFGWTSSNAKNKESPTKAIVRLREHINLLSKKQSHLRTQITNQENEARIFLTKGNKVMAKNALKKKKTIEQLLSKVEGTMESMEQQLFSIESANLNLETMRAMQEGAKAMKTIHSGLDIDKVDETMDEIREQVELGDEISDAISRPLITGANEVDEDELDEELDMLAQENANQETSKIVNNNVNAAPISENKVSLPSVPSNKIKQSENSVKDGEEEEDEED
notes: Snf7/Vps32, Saccharomyces cerevisiae, residues 1-225, lacks the C-terminal α6 helix; source: recombinant, purified as described (Buchkovich et al., 2013; Henne et al., 2012; Tang et al., 2015)
  binding result: binds
